Laboratory results as given in paper PMC4786781.

Biological target: T1, Spo0J R82A (Bacillus subtilis, UniProt P26497 1-282, R82A)
T1 sequence: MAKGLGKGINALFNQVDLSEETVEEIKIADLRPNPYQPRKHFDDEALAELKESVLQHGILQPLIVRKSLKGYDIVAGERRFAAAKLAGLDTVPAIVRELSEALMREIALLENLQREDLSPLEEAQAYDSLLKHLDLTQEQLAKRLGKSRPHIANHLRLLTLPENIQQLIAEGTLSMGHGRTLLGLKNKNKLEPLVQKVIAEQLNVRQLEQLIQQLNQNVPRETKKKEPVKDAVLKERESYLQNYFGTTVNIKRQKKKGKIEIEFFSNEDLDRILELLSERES
Experiment: white light interferometry (BLItz), Hill fit (n=1.9±0.5); 150 mM NaCl, 0.02% Tween-20; apparent Kd; PIFE: 20 mM Tris pH 7.5, 100 ug/ml BSA, 100 mM NaCl (150 mM for Spo0J R82A Kd), flow 100 ul/min; BLItz: 20 mM Tris pH 7.5, 150 mM NaCl, 100 ug/ml BSA, 0.02% Twe

B1: 39-bp scrambled parS duplex (oTG044F/oTG043R) (dsDNA)
DNA 1: CAGTTGAATCTGACAAATGACTAACAATGAGAGCAAAAA
DNA 2: TTTTTGCTCTCATTGTTAGTCATTTGTCAGATTCAACTG
Kd: 131 ± 24.3 nM
